# Experimental data: PMC11267843, “Transcription factor binding specificities of the oomycete Phytophthora infestans reflect conserved and divergent evolutionary patterns and predict function”
# B1: HSF three-site (dsDNA)
# DNA 1: TAAATATAGCACGCGAATATTCTAGAAACTGCAGCACAACA
# DNA 2: TGTTGTGCTGCAGTTTCTAGAATATTCGCGTGCTATATTTA
# B2: Myb wild-type motif (dsDNA)
# DNA 1: CTACACTATCATTCTCCGTTACGTCCTACTGTATTGG
# DNA 2: CCAATACAGTAGGACGTAACGGAGAATGATAGTGTAG
# B3: HSF two-site (wild-type motif) (dsDNA)
# DNA 1: TAAATATAGCACGCTTCTAGAAACTGCAGCACAACA
# DNA 2: TGTTGTGCTGCAGTTTCTAGAAGCGTGCTATATTTA
# Key:
# [1] = biological target: PITG_04701 HSF (Phytophthora infestans, UniProt D0N1U7 1-190); experiment: EMSA; conditions: protein: recombinant, tags: 6xHis, GST (N- or C-terminal, per PBM vectors), chain copies: 3, blunt
# [2] = biological target: PITG_08807 2R-Myb (Phytophthora infestans, UniProt D0ND89 1-188); experiment: EMSA; self-competition with unlabeled DNA; conditions: protein: recombinant; tags: 6xHis; GST (N- or C-terminal, per PBM vectors); label: Cy5 (probe); blunt
binder,measurement,setting,value
B1,binding result,[1]; label: Cy5,binds
B2,binding result,[2],binds
B3,binding result,[1]; label: Cy5 (probe),binds
